Results: paper PMC9828297 (Acta Biochimica et Biophysica Sinica, 2022)

Biological target: the molecule itself
Test: SEC

B1: polyketide cyclase from Mycobacterium tuberculosis (MtPC) (natural protein)
chain: MGSTPPRTPQEVFAHHGQALAAGDLDEIVADYADDSFVITPAGIARGKEGIRQLFVKLLDDIPNALWDLKTQIFEGDILFLEWTANSAVSRVDDGVDTFVFRDGTIWAHTVRYTPHPKT
- stoichiometry N: 2
